Data on 1 molecule can be found in US6060588, “Bap-1 proteins” (COR Therapeutics, Inc., dated 2000).

For this experiment, the target named is GAL4 DNA binding protein only (pGBT9) (Saccharomyces cerevisiae (strain ATCC …, UniProt P04386)). Kind of experiment: yeast two-hybrid, mating with control baits.

B1: clone 126-2 (partial cDNA of the mouse homologue of Bap-1, fused to the VP16 activation domain) (other)
chain: SGAEDNGDSSHCSNASTHSNQEAGPSNKRTKTSDDSGLDLDNNNAGVAIDPVMDGASEIELVFRPHPTLMEKDDSAQTRYIKTSGNATVDHLSKYLAVRLALEELRSKV
Take B1: the binding result is listed as “no binding”.
